What was measured:
[1] = biological target: T1, bay thioesterase enzyme purified from developing seeds (Umbellularia californica, UniProt Q41635); assay: Substrate analysis of bay thioesterase purified from developing seeds; format: biochemical; details: enzyme purified from developing seeds as in Example 2
T1 construct: The cotyledons from such seeds are dissected from the other seed parts and stored frozen at -70°; This comprises the source tissue for enzyme extraction; from tissue; host or cells: immature seed cotyledons of Umbellularia californica
T1 sequence (Q41635 84-382): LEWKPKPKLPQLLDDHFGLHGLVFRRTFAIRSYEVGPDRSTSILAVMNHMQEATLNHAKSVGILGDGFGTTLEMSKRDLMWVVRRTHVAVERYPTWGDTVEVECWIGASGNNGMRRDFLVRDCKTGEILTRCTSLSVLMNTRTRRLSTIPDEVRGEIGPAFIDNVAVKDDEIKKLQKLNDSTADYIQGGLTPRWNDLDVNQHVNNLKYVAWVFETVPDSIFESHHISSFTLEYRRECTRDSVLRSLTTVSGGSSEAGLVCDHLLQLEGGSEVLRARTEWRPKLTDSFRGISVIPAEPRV
Protocol: (§1) To assay for C12 thioesterase activity the following mixture is incubated at 30° for 30 min: "buffer" comprising 7mM KH2PO4-KOH pH 8, 20% v/v glycerol, 1mM dithiothreitol (DTT), 0.1% v/v Triton X100; sample to be tested for activity in the same or similar buffer as the "extraction buffer" described in Example 2; and 5µl of ^14C-radiolabeled lauroyl-ACP substrate for a total volume of 100µl and final lauroyl-ACP concentration of 0.5µM. Lauroyl-ACP substrate is prepared according to the method of Rock et al (Methods in Enzymology (1981) 72:397-403), using ACP prepared from Escherichia coli by the method of Rock and Cronan (Methods in Enzymology (1981) 71:341-351). The laurate is radiolabeled in the carboxylate group at a specific radioactivity of 50-60µCi/µmol.
(§2) The reaction is stopped by adding 0.5ml cold (0°) 10% v/v acetic acid. The fatty acid product of the hydrolytic enzyme action is extracted away from the unhydrolyzed substrate by adding 1ml diethyl ether and mixing vigorously. After settling for a few minutes the upper ether layer is transferred to 5ml scintillation fluid for determination of radioactivity by liquid scintillation spectrometry. Additional ether extractions may be performed to recover remaining traces of the reaction product for more accurate quantitation of the enzyme activity if desired. The amount of ether-extracted radioactivity is a direct measure of C12-preferring acyl-ACP thioesterase activity, provided the amount of enzyme is not sufficient to hydrolyze more than about 25% of the substrate. With greater activity than this the relationship between radioactivity in the ether layer and the quantity of enzyme becomes markedly nonlinear. The enzyme preparation must then be diluted appropriately to bring the activity into the linear range of the assay.
The dialyzed material is then applied to a column of immobilized ACP (2.5cm diameter x 10.5cm bed height). This column is manufactured by coupling Escherichia coli ACP to cyanogen bromide-activated Sepharose 4B according to instructions supplied by the manufacturer of this column packing (Pharmacia Inc., Piscataway, NJ). The E. coli ACP is prepared as referenced in Example 1. Before use the column is equilibrated with ACP1 buffer. The dialyzed material from the cation exchange column is applied at 1-1.3ml/min, and fractions of 8ml volume are collected throughout the procedure. Fractions are assayed for C12-preferring acyl-ACP thioesterase activity, and for total protein content using a Cobmassie Blue assay method (Bio-Rad Inc., Richmond, CA, catalog no. 500-0001). A substantial amount of protein washes through the column without binding. Almost all of the C12-preferring acyl-ACP thioesterase activity binds. […]

[2] = biological target: T2, pCGN3823 induced E. coli lysate (mature bay thioesterase) (Umbellularia californica, UniProt Q41635); assay: Acyl-ACP hydrolysis by lysate of E. coli expressing mature bay thioesterase as lac fusion; format: biochemical; details: Dilution 1/4000, one hour induction with 0.1mM IPTG
T2 construct: the entire mature bay thioesterase protein is expressed as a lac fusion in E. coli cells; made in house
T2 sequence (Q41635 84-382): T1 sequence (Q41635 84-382)
Protocol: as §1, §2
In addition, the entire mature bay thioesterase protein is expressed as a lac fusion in E. coli cells. […] Digestion at this XbaI site cleaves the coding region immediately 5' of the codon representing the leucine at amino acid position 72. This leucine has been identified as a candidate for the amino terminal residue as described in Example 14A.
An approximately 1200 bp fragment of pCGN3822 cDNA is generated by digestion with XbaI, which cuts at the postulated mature protein start site, as described above, and in the vector sequences flanking the 3' end of the cDNA. The XbaI fragment is cloned on XbaI digest of the minus version of a Bluescribe M13(+/-) (also called pBS+/-) cloning vector (Stratagene; San Diego, CA.). The thioesterase gene clone is inserted such that the mature protein is in reading frame with a portion of the lacZ gene of the Bluescribe vector and under control of the lac promoter. […]

Row | Substance | Hydrolysis Activity (mean cpm in ether extract) [1] | Hydrolysis Activity (mean cpm in ether extract) [2]
1 | 14:0-ACP | 69 cpm | 116 cpm
2 | 16:0-ACP | 12 cpm | 20 cpm
3 | decanoyl-ACP [10:0-ACP] | 0 cpm | 0 cpm
4 | lauroyl-ACP [12:0-ACP] | 1261 cpm | 1840 cpm

From EP1298214A2, “Plant thioesterases” (Calgene LLC, priority 1990, dated 1991)
